Experimental data taken from US20110002945A1, “Use of immunoglobulin heavy and light chains or fragments thereof to bind to aggregated amyloidogenic proteins” (published 2011).

Assays:
[1] = target: dityrosine cross-linked Aβ preparation (CAPS) (Homo sapiens (Human), UniProt P05067, dityrosine cross-linked); assay: EuLISA on plate-immobilized CAPS
fibrillar Aβ1-40 peptide = fibrillar Aβ1-40 peptide (Homo sapiens (Human), UniProt P05067); assay: EuLISA on plate-immobilized fibrils
Description: High binding activated microtiter plate wells were coated with 400 ng of fibrillar Aβ1-40 peptide, which was prepared by aggregation in 10 mM PBS of Aβ1-40 peptide, previously disaggregated by the trifluoro acetic acid/hexafluoroisopropanol procedure [Adekar et al., J. Biol. Chem. 285, 1066-1074 (2010)]. After blocking with 1% bovine serum albumin (BSA), F1 was serially diluted in 10 mM PBS/1% BSA and applied in 100 μl aliquots to coated wells. After incubation for 1 hr, wells were washed, and incubated with biotinylated goat anti-human IgG as a secondary antibody for 1 hr. Thereafter bound HC F1 was determined with a Eu³⁺-streptavidine conjugate followed by the release enhancement reagent (EuLISA) and measuring the amount of Eu³⁺ by time-resolved fluorescence (Victor 1420 multilabel counter) against a standard curve established with known concentrations of Eu³⁺.

IAPP fibrils = target: T1, IAPP fibrils (Homo sapiens (Human), UniProt P10997); assay: EuLISA on plate-immobilized fibrils (column heads of c9 and c10 seem swapped)
T1 peptide: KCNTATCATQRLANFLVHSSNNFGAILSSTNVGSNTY

- EC50 [1]: 28 nM
- EC50 (fibrillar Aβ1-40 peptide): 23 nM
- EC50 (IAPP fibrils): 40 nM
B1: antibody heavy chain F1 (other)
heavy: AMDWTWSILFLVAAATGAHSQVQLVQSGAEVKKPGASVKVSCKASGYTFSSNGIIWVRQAPGQGLEWLGWISGYNGKTRYAQKVQGRVTITTDTSTSTAYMELRSLRSDDTAVYYCAREKTMVRGAISGYSDYWGQGTLVTVSSASTKGPSVFPLAPSSKSTSGGTAALGCLVKDYFPEPVTVSWNSGALTSGVHTFPAVLQSSGLYSLSSVVTVPSSSLGTQTYICNVNHKPSNTKVDKKRVEPKSCDKTHTCPPCPAPELLGGPSVFLFPPKPKDTLMISRTPEVTCVVVDVSHEDPEVKFNWYVDGVEVHNAKTKPREEQYNSTYRVVSVLTVLDHQDWLNGKEYKCKVSNKALPAPIEKTISKAKGQPREPQVYTLPPSREELMTKNQVSLTCLVKGFYPSDIAVEWESNGQPENNYKTTPPVLDSDGSFFLYSKLTVDKSRWQQGNVFSCSVMHEALHNHYTQKSLSLSPGK
